B1: NLV2 TCR alpha chain (CDR3α only) (parent)
chain: AGPMKTSYDKVI

The variants in the first assay derive from B1. The experiment in a line: T-Switch: Jurkat TCRβ−/− cells expressing a CDR3 saturation-mutagenesis library, stained with two peptide-HLA-A*02:01 tetramers (original and novel peptide) plus anti-CD3, FACS-sorted into four gates, gDNA sequenced. The conditions noted are these: with both tetramers (double-negative gate, binds neither): HLA-A*02:01 with … and with …, tetramers 1 µg/mL, 30 min on ice, SP, DP and SW gates expanded about 10 days between rounds ('two to three rounds of selection' in the Methods), gate DN: OPPOSITE: higher = more of the variant in the gate that binds neither peptide = LESS binding (or no expression; inferred). Fold enrichment of the CDR3 variant in one FACS gate of a two-tetram, unresolved parent, parent is a CDR3 fragment, scale: fold enrichment, numbering: sequential-on-construct, sequence starts at 1.
Regarding […] (CDR3 as printed); K5S derived by comparing it with the table's wild-type CDR3 AGPMKTSYDKVI, the enrichment came out at 0.492.
On to […] (CDR3 as printed); A1M derived by comparing it with the table's wild-type CDR3 AGPMKTSYDKVI, for which the enrichment came to 0.803.
As to […] (CDR3 as printed); A1G derived by comparing it with the table's wild-type CDR3 AGPMKTSYDKVI, the enrichment was determined as 0.876.
The same measure, in the same setting: under […] (CDR3 as printed); M4C derived by comparing it with the table's wild-type CDR3 AGPMKTSYDKVI stands 0.681.
In the case of […] (CDR3 as printed); A1N derived by comparing it with the table's wild-type CDR3 AGPMKTSYDKVI, the enrichment worked out at 0.847.
For the variant […] (CDR3 as printed); G2R derived by comparing it with the table's wild-type CDR3 AGPMKTSYDKVI, the enrichment worked out at 0.977.
Turning to […] (CDR3 as printed); G2K derived by comparing it with the table's wild-type CDR3 AGPMKTSYDKVI, the enrichment was found to be 0.928.
For […] (CDR3 as printed); K5W derived by comparing it with the table's wild-type CDR3 AGPMKTSYDKVI, the enrichment was 0.659.
For […] (CDR3 as printed); I12V derived by comparing it with the table's wild-type CDR3 AGPMKTSYDKVI, the enrichment was 0.739.
With […] (CDR3 as printed); I12G derived by comparing it with the table's wild-type CDR3 AGPMKTSYDKVI, the enrichment stood at 1.06.
Turning to […] (CDR3 as printed); A1K derived by comparing it with the table's wild-type CDR3 AGPMKTSYDKVI, the enrichment came out at 1.
Turning to […] (CDR3 as printed); D9V derived by comparing it with the table's wild-type CDR3 AGPMKTSYDKVI, the enrichment was 0.959.
[…] (CDR3 as printed); G2I derived by comparing it with the table's wild-type CDR3 AGPMKTSYDKVI: the enrichment came to 1.1.
Consider […] (CDR3 as printed); D9H derived by comparing it with the table's wild-type CDR3 AGPMKTSYDKVI, for which the enrichment was found to be 1.29.
With […] (CDR3 as printed); K5C derived by comparing it with the table's wild-type CDR3 AGPMKTSYDKVI, the enrichment stood at 1.03.
[…] (CDR3 as printed); D9F derived by comparing it with the table's wild-type CDR3 AGPMKTSYDKVI: the enrichment turned out to be 1.2.
Consider […] (CDR3 as printed); D9S derived by comparing it with the table's wild-type CDR3 AGPMKTSYDKVI, for which the enrichment was found to be 1.04.
Regarding […] (CDR3 as printed); G2W derived by comparing it with the table's wild-type CDR3 AGPMKTSYDKVI, the enrichment was determined as 1.05.
Same read-out and setting: for […] (CDR3 as printed); K10A derived by comparing it with the table's wild-type CDR3 AGPMKTSYDKVI the value was 0.862.
Same read-out and setting: for […] (CDR3 as printed); I12T derived by comparing it with the table's wild-type CDR3 AGPMKTSYDKVI the value was 0.984; for […] (CDR3 as printed); K5H derived by comparing it with the table's wild-type CDR3 AGPMKTSYDKVI, 0.696.
With […] (CDR3 as printed); K10N derived by comparing it with the table's wild-type CDR3 AGPMKTSYDKVI, the enrichment was found to be 1.16.
With […] (CDR3 as printed); D9A derived by comparing it with the table's wild-type CDR3 AGPMKTSYDKVI, the enrichment stood at 1.01.
Turning to […] (CDR3 as printed); A1S derived by comparing it with the table's wild-type CDR3 AGPMKTSYDKVI, the enrichment came to 0.736.
On to […] (CDR3 as printed); G2A derived by comparing it with the table's wild-type CDR3 AGPMKTSYDKVI, for which the enrichment was determined as 0.977.

The same assay, now with this note: with both tetramers (double-positive gate): HLA-A*02:01 with … and with …, tetramers 1 µg/mL, 30 min on ice, SP, DP and SW gates expanded about 10 days between rounds ('two to three rounds of selection' in the Methods), gate DP: higher = more of the variant in the gate that binds both peptides. Fold enrichment of the CDR3 variant in one FACS gate of a two-tetramer stain. SP/DP/SW gates were expanded and re-sorted bef, unresolved parent, parent is a CDR3 fragment, scale: fold enrichment, numbering: sequential-on-construct, sequence starts at 1.
For the variant […] (CDR3 as printed); K5S derived by comparing it with the table's wild-type CDR3 AGPMKTSYDKVI, the enrichment was 0.
As to […] (CDR3 as printed); A1M derived by comparing it with the table's wild-type CDR3 AGPMKTSYDKVI, the enrichment came to 0.
As to […] (CDR3 as printed); A1G derived by comparing it with the table's wild-type CDR3 AGPMKTSYDKVI, the enrichment turned out to be 0.
In the case of […] (CDR3 as printed); M4C derived by comparing it with the table's wild-type CDR3 AGPMKTSYDKVI, the enrichment turned out to be 0.
For the variant […] (CDR3 as printed); A1N derived by comparing it with the table's wild-type CDR3 AGPMKTSYDKVI, the enrichment was 0.
On the same count and under the same terms, under […] (CDR3 as printed); G2R derived by comparing it with the table's wild-type CDR3 AGPMKTSYDKVI stands 0; under […] (CDR3 as printed); G2K derived by comparing it with the table's wild-type CDR3 AGPMKTSYDKVI, 0; under […] (CDR3 as printed); K5W derived by comparing it with the table's wild-type CDR3 AGPMKTSYDKVI, 0.
With […] (CDR3 as printed); I12V derived by comparing it with the table's wild-type CDR3 AGPMKTSYDKVI, the enrichment came to 0.
Take […] (CDR3 as printed); I12G derived by comparing it with the table's wild-type CDR3 AGPMKTSYDKVI: the enrichment was found to be 0.
On the same count and under the same terms, for […] (CDR3 as printed); A1K derived by comparing it with the table's wild-type CDR3 AGPMKTSYDKVI the value was 0; for […] (CDR3 as printed); D9V derived by comparing it with the table's wild-type CDR3 AGPMKTSYDKVI, 0.
Regarding […] (CDR3 as printed); G2I derived by comparing it with the table's wild-type CDR3 AGPMKTSYDKVI, the enrichment came out at 0.
Turning to […] (CDR3 as printed); D9H derived by comparing it with the table's wild-type CDR3 AGPMKTSYDKVI, the enrichment was found to be 0.
In the case of […] (CDR3 as printed); K5C derived by comparing it with the table's wild-type CDR3 AGPMKTSYDKVI, the enrichment worked out at 0.
With […] (CDR3 as printed); D9F derived by comparing it with the table's wild-type CDR3 AGPMKTSYDKVI, the enrichment was determined as 0.
On to […] (CDR3 as printed); D9S derived by comparing it with the table's wild-type CDR3 AGPMKTSYDKVI, for which the enrichment was 0.
The same measure, in the same setting: for […] (CDR3 as printed); G2W derived by comparing it with the table's wild-type CDR3 AGPMKTSYDKVI the value was 0; for […] (CDR3 as printed); K10A derived by comparing it with the table's wild-type CDR3 AGPMKTSYDKVI, 0.
Take […] (CDR3 as printed); I12T derived by comparing it with the table's wild-type CDR3 AGPMKTSYDKVI: the enrichment was 0.
Still for that read-out and setting: under […] (CDR3 as printed); K5H derived by comparing it with the table's wild-type CDR3 AGPMKTSYDKVI stands 0.
Take […] (CDR3 as printed); K10N derived by comparing it with the table's wild-type CDR3 AGPMKTSYDKVI: the enrichment came to 0.
On to […] (CDR3 as printed); D9A derived by comparing it with the table's wild-type CDR3 AGPMKTSYDKVI, for which the enrichment stood at 0.
Consider […] (CDR3 as printed); A1S derived by comparing it with the table's wild-type CDR3 AGPMKTSYDKVI, for which the enrichment was found to be 0.
Turning to […] (CDR3 as printed); G2A derived by comparing it with the table's wild-type CDR3 AGPMKTSYDKVI, the enrichment came to 0.

Source of the values: paper PMC13397619.
